Tests used:
[1] = HPLC measurements of oxidative stress (ROS, GSH/GSSG, NADPH, NADH) in heart post-MI; type: in vivo, mouse
Description: ROS production in heart tissue was measured using HPLC for dihydroethidium (DHE) oxidation products (Magadum A., et al., Circulation. 2020, 141 (15): 1249-1265). Immediately after harvesting hearts, a 20 mg segment of heart tissue was cut into small pieces and incubated with DHE (100 μM) in PBS containing DTPA (100 μM) at 37° C. for 30 min. The sample was washed with PBS/DTPA, extracted with acetonitrile (500 μl) and briefly sonicated (3× 30 sec, 8W). After centrifugation (13,000×g, 10 min at 4° C.), the supernatant was collected and dried under vacuum, and pellets stored at −20° C. in the dark until analysis. Samples were resuspended in 120 μl PBS-DTPA and injected into the HPLC system. The superoxide-specific DHE oxidation product 2-hydroxyethidine (EOH) was quantified by comparison of the peak signal between samples and standard solutions under identical chromatographic conditions, and expressed as EOH/mg tissue.
The level of glutathione (GSH) in heart tissue was measured by an HPLC method with electrochemical detection, as previously described (Magadum A., et al., Circulation. 2020, 141 (15): 1249-1265). Heart samples were homogenized in a 100 mM acetate buffer (pH 5.4, containing 10 μM DTPA). A small aliquot was used to quantify total protein. The remaining sample was deproteinized with 10% TCA, centrifuged at 10,000×g for 5 min at 4° C., the supernatant filtered (0.45 μm) and stored at −80° C. Samples were injected onto a C18 column (Phenomenex C18, 3 μm, 150×4.6 mm) and eluted at 0.5 ml/min using an isocratic mobile phase solution (25 mM NaH2PO4, 1 mM 1-octane sulfonic acid, 6% acetonitrile, pH 2.6, H2O with phosphoric acid). GSH levels were quantified by comparison to standards subjected to the same HPLC conditions. Glutathione disulfide (GSSG) levels were indirectly determined by its enzymatic reduction with glutathione reductase (0.6 U/ml plus 0.2 mg/ml NADPH) for 30 min. The reaction was stopped by adding 5% TCA on ice. The GSH levels were normalized by the amount of protein. GSSG quantification was achieved by the difference between total reduced GSSG to total GSH in each sample.

[2] = Mouse MI model: heart histology 28 days post-MI (Masson trichrome scar size, HW/BW, WGA CM size, CD31 capillaries); type: in vivo
Description: All surgical and experimental procedures with mice were performed in accordance with protocols approved by Institutional Animal Care and Use Committees at Temple University Animal Care and Use Committee (IACUC). C57BL6 or CM-specific MADM mice (8-12-weeks-old) were anesthetized with isoflurane. MI was induced by permanent ligation of the LAD, as previously described (Garikipati, V. N. S., et al., 2019, Nature Communications, 10:4317). Briefly, the left thoracic region was shaved and sterilized. After intubation, the heart was exposed through a left thoracotomy. A suture was placed to ligate the LAD. The thoracotomy and skin were sutured closed in layers. Excess air was removed from the thoracic cavity, and the mouse was removed from ventilation when normal breathing was established. In order to determine the effect of modRNA on cardiovascular outcome after MI, modRNAs (100 μg/heart) were injected into the infarct zone immediately after LAD ligation (Magadum A., et al., Circulation. 2020, 141 (15): 1249-1265). For examination of heart histology, hearts were collected at the end of each study, quickly washed in PBS, weighed, and fixed in 4% PFA for cryo-sectioning and immunostainings. In all experiments, the surgeon was blinded to the treatment group. For assessment of heart histology, hearts were collected at the end of each study. The hearts were excised, briefly washed in PBS, perfused with perfusion buffer, weighed and fixed in 4% PFA at 4° C. overnight. The heart blocks were transverse sectioned at 6-8 μm using cryostat. The heart sections were further processed for histological evaluation using immunostaining (see below) or histological scar staining using Masson's trichrome staining kit (Sigma) according to standard procedures. Measuring the ratio of heart weight to body weight was done using a scale. This ratio was calculated as the heart tissue weight relative to the mouse total body weight in grams (g).
Mice hearts were harvested, weighed, and fixed in 4% PFA/PBS overnight on shaker and then washed with PBS for 1 hour and incubated in 30% sucrose/PBS at 4° C. for 12-18 hours. Hearts were then fixed in OCT and frozen at −80° C. (Magadum A., et al., Circulation. 2020, 141 (15): 1249-1265). Transverse heart sections (6-8 μm) were made using a cryostat. […] For immunostaining with wheat germ agglutinin (WGA) for CM size quantification, images were captured at 40× magnification, and ImageJ was used to determine the area of each cell. Quantitative analyses involved counting of multiple fields from 5-8 mouse hearts per group, and 3-4 sections/heart (˜50 cells per field assessed, for a total ˜250 cells per sample). […] BrdU positive CMs were counted in multiple fields from three independent samples per group and 3 sections/heart. […]

B1: PSAT1 modRNA: modified mRNA with N1-methylpseudouridine, transcribed in vitro, encoding phosphoserine aminotransferase 1 (ORF SEQ ID NO: 1, RNA SEQ ID NO: 2) (nucleic acid)
chain: AUGGAAGCCACCAAGCAAGUGGUUAACUUUGGGCCCGGGCCUGCCAAGCUGCCACACUCGGUAUUGUUGGAGAUCCAGAAGCAGCUACUAGACUACAGAGGACUCGGCAUCAGUGUGCUCGAAAUGAGUCACAGGUCAUCAGAUUUUGCCAAGAUUAUUGGCAAUACAGAGAAUCUUGUGAGGGAAUUGCUAGCUGUUCCCAACAACUACAAGGUGAUCUUUGUACAAGGAGGUGGGUCUGGCCAGUUCAGUGCUGUCCCCUUAAAUCUGAUUGGCCUGAAAGCUGGAAGGAGUGCUGACUACGUGGUGACCGGAGCUUGGUCAGCUAAGGCUGCGGAAGAAGCCAAGAAGUUUGGAACGGUGAACAUUGUCCACCCUAAACUUGGAAGUUACACAAAAAUUCCAGACCCAAGCACCUGGAACCUCAACCCGGACGCCUCCUAUGUAUACUUCUGUGCAAACGAGACUGUGCACGGGGUGGAGUUUGACUUCGUACCUGACGUCAAGGGAGCGGUGCUGGUCUGUGACAUGUCCUCAAACUUCUUAUCCAGGCCGGUGGAUGUUUCCAAGUUUGGUGUGAUUUUCGCUGGUGCUCAGAAGAAUGUUGGCUCUGCCGGGGUGACGGUGGUGAUUGUCCGGGAUGACCUGCUGGGGUUCUCGCUCAGAGAGUGCCCAUCAGUCCUUGACUACAAAGUGCAGGCUGGGAACAACUCUUUGUAUAACACACCUCCGUGCUUCAGCAUCUACGUCAUGGGCAUGGUCCUGGAAUGGAUCAAGAACAACGGCGGGGCCGCAGCCAUGGAGAAGCUCAGCUCCAUCAAAUCCCAAAUGAUUUAUGAGAUCAUUGAUAAUUCUCAAGGAUUUUAUGUAUGCCCAGUGGAGCGCCAGAAUAGAAGCAGGAUGAACAUCCCAUUUCGCAUUGGCAACGCCAAAGGAGACGAAGCUUUGGAAAAGCGGUUUCUUGACAAGGCGGUAGAACUCAACAUGAUCUCCUUGAAGGGGCACAGGUCAGUGGGAGGCAUUCGUGCCUCUCUGUAUAACGCUGUCACAACCGAAGACGUUGAGAAGCUGGCGGCCUUCAUGAAGAAUUUCUUGGAGAUGCAUCAGCUGUGA
modifications: N1-methylpseudouridine
- GSH/GSSG ratio ([1]; heart post-MI): significantly increased
- levels of superoxide and other ROS ([1]; heart two days post-MI, DHE probe): reduced
- NADH level ([1]; two days post-MI): increased
- NADPH level ([1]; two days post-MI): increased
- CM size (WGA) [2]: significantly decreased
- capillary density (CD31) [2]: improved
- heart weight to body weight (HW/BW) ratio [2]: significantly increased
- scar size (Masson's trichrome staining) ([2]; compared to Luc modRNA): decreased

— patent publication US20250215403A1, “Compositions and Methods for Cardiac Tissue Regeneration” (Temple University - Of The Commonwealth System Of Higher …, priority 2022, published 2025)
